# According to paper PMC7711741:
# pKd, pKi: −log10 of the molar value. Read-outs that look alike come from different tables or passages of the source.
# Assays:
# [1] = target: mupain-1 (synthetic construct); conditions: cited from earlier work
# [2] = target: mupain-1 (synthetic construct)
# [3] = target: mupain-1 (synthetic construct); remark: listed apart in the source
# [4] = target: mupain-1 (synthetic construct); assay: SPR
# [5] = target: urokinase-type plasminogen activator (muPA) (Mus musculus) (UniProt P06869); conditions: cited from earlier work
# [6] = target: mupain-1 (synthetic construct); remark: listed apart in the source
# [7] = target: mupain-1 (synthetic construct); conditions: cited from earlier work; remark: listed apart in the source
# [8] = target: mupain-1 (synthetic construct); conditions: cited from earlier work; remark: listed apart in the source
# [9] = target: mupain-1 (synthetic construct); conditions: cited from earlier work; remark: listed apart in the source
# [10] = target: mupain-1 (synthetic construct); conditions: cited from earlier work; remark: listed apart in the source
# [11] = target: mupain-1 (synthetic construct); conditions: cited from earlier work; remark: listed apart in the source
# Sequence of plasma kallikrein, P03952 (P03952 391-638): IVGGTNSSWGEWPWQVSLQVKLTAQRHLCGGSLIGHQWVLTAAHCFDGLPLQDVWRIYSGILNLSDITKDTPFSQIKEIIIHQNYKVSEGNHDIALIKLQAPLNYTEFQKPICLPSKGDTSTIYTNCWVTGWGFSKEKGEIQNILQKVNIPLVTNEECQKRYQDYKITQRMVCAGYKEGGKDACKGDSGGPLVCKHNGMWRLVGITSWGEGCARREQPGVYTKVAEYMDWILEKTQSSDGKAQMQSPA
# Sequence of factor XIa catalytic domain (P03951 388-625): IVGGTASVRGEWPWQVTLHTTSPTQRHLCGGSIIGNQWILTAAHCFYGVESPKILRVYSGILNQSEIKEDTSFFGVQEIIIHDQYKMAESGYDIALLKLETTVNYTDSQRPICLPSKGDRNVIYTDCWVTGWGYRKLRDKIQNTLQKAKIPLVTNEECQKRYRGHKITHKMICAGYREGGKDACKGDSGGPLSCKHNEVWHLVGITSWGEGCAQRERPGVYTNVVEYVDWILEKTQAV
# Sequence of plasmin (from UniProt P20918) (P20918 582-812): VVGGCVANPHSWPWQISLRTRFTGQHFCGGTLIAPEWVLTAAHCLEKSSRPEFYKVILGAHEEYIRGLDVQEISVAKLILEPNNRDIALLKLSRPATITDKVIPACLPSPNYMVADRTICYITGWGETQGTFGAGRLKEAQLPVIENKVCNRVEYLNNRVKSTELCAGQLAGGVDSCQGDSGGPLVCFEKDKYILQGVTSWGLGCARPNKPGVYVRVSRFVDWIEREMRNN
# Sequence of beta-trypsin (P00760 24-246): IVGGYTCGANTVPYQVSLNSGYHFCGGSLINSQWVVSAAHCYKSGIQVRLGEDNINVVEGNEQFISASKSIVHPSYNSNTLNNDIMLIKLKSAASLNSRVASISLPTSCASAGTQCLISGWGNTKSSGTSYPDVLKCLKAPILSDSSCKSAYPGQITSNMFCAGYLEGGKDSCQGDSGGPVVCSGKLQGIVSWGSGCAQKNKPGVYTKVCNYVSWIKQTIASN
# Sequence of plasma kallikrein, P26262 (P26262 391-638): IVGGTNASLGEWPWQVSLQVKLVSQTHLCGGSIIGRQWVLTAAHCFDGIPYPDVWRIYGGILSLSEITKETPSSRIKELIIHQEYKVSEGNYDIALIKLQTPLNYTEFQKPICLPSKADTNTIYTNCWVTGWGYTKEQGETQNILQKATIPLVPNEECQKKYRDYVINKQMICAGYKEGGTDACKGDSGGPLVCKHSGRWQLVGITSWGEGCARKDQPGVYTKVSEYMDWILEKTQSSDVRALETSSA
# Sequence of plasmin (from UniProt P00747) (P00747 581-810): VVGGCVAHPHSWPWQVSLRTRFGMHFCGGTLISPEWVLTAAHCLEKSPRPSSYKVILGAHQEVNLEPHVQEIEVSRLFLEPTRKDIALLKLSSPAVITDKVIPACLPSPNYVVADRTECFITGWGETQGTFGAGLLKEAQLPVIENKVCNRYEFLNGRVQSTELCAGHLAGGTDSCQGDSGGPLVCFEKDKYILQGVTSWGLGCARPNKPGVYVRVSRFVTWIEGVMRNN
# Sequence of urokinase-type plasminogen activator (muPA) (Mus musculus) (P06869 180-433): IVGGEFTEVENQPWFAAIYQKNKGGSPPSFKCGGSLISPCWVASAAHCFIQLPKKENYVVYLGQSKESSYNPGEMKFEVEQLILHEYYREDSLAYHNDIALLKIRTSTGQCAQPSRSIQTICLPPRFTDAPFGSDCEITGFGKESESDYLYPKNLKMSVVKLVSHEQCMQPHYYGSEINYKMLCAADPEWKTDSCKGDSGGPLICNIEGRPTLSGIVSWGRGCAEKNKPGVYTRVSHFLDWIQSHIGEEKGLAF
# Sequence of urokinase-type plasminogen activator (P06869 157-178): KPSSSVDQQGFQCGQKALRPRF
substance,measurement,setting,value
urokinase-type plasminogen activator (from UniProt P06869),pKi,[1],6.26
"KLK1, P06870",pKi,[2],< 3.00
"plasma kallikrein, P03952",pKi,[3],< 3.00
same,pKd,[4],< 3.00
mupain-1,pKi,[5],6.26
"plasma kallikrein, P26262",pKi,[6],< 3.00
factor XIa catalytic domain (from UniProt P03951),pKi,[7],< 3.00
beta-trypsin (from UniProt P00760),pKi,[8],4.68
plasmin (from UniProt P00747),pKi,[9],< 3.00
urokinase-type plasminogen activator (from UniProt P00749),pKi,[10],< 3.00
plasmin (from UniProt P20918),pKi,[11],< 3.00
